According to article PMC2793518, “Fiber Mediated Receptor Masking in Non-Infected Bystander Cells Restricts Adenovirus Cell Killing Effect but Promotes Adenovirus Host Co-Existence” (PLoS ONE, 2009):

Biological target: T1, CAR on A549 cells (human (endogenous in A549), UniProt P78310 20-365)
T1 sequence: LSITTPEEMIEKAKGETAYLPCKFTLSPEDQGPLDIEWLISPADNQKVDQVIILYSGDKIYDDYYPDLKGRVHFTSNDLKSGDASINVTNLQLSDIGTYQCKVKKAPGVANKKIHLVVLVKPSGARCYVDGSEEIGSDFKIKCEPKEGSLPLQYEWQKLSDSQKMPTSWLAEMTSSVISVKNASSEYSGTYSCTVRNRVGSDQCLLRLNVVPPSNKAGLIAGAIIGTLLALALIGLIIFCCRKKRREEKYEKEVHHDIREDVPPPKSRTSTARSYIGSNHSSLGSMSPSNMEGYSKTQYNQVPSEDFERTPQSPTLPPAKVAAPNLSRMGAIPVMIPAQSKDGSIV
Assay: cell-based or functional assay

B1: Ad5 fiber (free trimeric fiber molecules released from Ad5-CRAD or WT Ad5 infected cells) (natural protein)
chain: MKRARPSEDTFNPVYPYDTETGPPTVPFLTPPFVSPNGFQESPPGVLSLRLSEPLVTSNGMLALKMGNGLSLDEAGNLTSQNVTTVSPPLKKTKSNINLEISAPLTVTSEALTVAAAAPLMVAGNTLTMQSQAPLTVHDSKLSIATQGPLTVSEGKLALQTSGPLTTTDSSTLTITASPPLTTATGSLGIDLKEPIYTQNGKLGLKYGAPLHVTDDLNTLTVATGPGVTINNTSLQTKVTGALGFDSQGNMQLNVAGGLRIDSQNRRLILDVSYPFDAQNQLNLRLGQGPLFINSAHNLDINYNKGLYLFTASNNSKKLEVNLSTAKGLMFDATAIAINAGDGLEFGSPNAPNTNPLKTKIGHGLEFDSNKAMVPKLGTGLSFDSTGAITVGNKNNDKLTLWTTPAPSPNCRLNAEKDAKLTLVLTKCGSQILATVSVLAVKGSLAPISGTVQSAHLIIRFDENGVLLNNSFLDPEYWNFRNGDLTEGTAYTNAVGFMPNLSAYPKSHGKTAKSNIVSQVYLNGDKTKPVTLTITLNGTQETGDTTPSAYSMSFSWDWSGHNYINEIFATSSYTFSYIAQE
percent GFP+ cells 24 hr after super-infection with Ad5-PGK-GFP (MOI 10) of A549 cultures infected 6 days before with Ad5-CRAD (MOI 1.0), relative to cultures without prior Ad5-CRAD infection: 60 % of control
